Data on 1 molecule can be found in patent publication US20150175693A1 (UNIVERSIT TSKLINIKUM REGENSBURG, published 2015).

The assay concerns the target T1, IL-3 receptors on human basophils, pDC, monocytes and B cells (PBMC) (human, UniProt P26951 19-378; P32927 17-897).
T1 construct: whole, on cells; Natural receptor on primary human blood cells; the cells were sorted by CD123 and HLA-DR staining; also called CD123
The assay is described as follows: flow cytometry, biotinylated hIL-3 on human PBMC, avidin-FITC. As to the method:
Binding of IL-3 to human peripheral blood mononuclear cells (PBMC) was analysed using commerically available biotinylated IL-3. For the assay, biotinylated IL-3 was incubated with PBMC and binding detected via Avidin-Fluorescein (biotinylated hIL-3 and other reagents obtained from R&D Systems, Inc., Cat. No. NF300).
10 μl of the isolated and incubated PBMC cell preparation (10 Mio. cells/ml) were added to each of the preincubated IL-3/antibody or negative control samples and further incubated for 1 hour at 4° C. For the detection of IL-3 bound to PBMC, 10 μl avidin-FITC reagent together with anti-human CD123 PE-Cy5 (1:10) and anti-HLA-DR II APC (1:50) were added and the samples incubated for a further 30 min at 4° C. Cells were washed twice with 2 ml 1×RDF1 buffer and resuspended in 200 μl of this buffer per sample and FACS analysis performed. Basophils were identified by high expression of CD123 and absence of HLA-DR. Plasmacytoid dendritic cells (pDC) were identified by high expression of CD123 and HLA-DR. Monocytes and B cells were identified by light scatter properties and expression of HLA-DR.

T1 sequence (P26951 19-378, chain 1 of 2): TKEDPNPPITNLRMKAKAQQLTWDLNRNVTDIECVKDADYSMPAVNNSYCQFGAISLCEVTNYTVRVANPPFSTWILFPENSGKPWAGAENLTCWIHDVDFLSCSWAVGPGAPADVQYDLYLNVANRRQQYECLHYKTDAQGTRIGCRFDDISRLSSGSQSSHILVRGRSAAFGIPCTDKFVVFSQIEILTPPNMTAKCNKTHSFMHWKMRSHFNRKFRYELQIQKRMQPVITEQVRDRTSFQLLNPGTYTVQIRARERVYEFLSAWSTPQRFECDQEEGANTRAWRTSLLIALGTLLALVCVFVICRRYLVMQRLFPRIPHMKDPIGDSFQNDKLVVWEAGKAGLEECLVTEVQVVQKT
T1 sequence (P32927 17-897, chain 2 of 2): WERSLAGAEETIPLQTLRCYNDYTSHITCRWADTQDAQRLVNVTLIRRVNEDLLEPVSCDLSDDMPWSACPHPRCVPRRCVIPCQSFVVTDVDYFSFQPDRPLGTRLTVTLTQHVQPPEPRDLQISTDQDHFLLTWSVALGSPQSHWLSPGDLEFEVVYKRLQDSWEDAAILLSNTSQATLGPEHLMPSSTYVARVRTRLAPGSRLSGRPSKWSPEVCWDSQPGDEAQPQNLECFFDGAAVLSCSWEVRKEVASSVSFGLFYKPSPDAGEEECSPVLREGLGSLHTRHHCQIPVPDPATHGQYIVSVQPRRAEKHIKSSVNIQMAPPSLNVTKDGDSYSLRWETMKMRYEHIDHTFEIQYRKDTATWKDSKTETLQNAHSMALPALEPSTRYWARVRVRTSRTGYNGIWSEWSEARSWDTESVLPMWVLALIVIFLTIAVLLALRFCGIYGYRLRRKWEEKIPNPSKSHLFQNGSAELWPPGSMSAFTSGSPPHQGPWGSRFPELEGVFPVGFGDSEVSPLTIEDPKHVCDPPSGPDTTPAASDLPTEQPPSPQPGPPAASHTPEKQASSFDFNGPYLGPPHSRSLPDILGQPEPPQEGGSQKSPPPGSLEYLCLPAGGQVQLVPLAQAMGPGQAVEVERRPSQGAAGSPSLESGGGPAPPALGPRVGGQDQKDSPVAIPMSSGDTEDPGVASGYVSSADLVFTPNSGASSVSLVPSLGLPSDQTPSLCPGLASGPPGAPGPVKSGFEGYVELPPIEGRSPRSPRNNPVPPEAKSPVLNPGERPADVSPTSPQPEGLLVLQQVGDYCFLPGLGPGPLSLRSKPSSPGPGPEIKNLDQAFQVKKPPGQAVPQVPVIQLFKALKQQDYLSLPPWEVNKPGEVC

B1: biotinylated hIL-3 (R&D Systems, Cat. No. NF300) (ligand)
chain: APMTQTTPLKTSWVNCSNMIDEIITHLKQPPLPLLDFNNLNGEDQDILMENNLRRPNLEAFNRAVKSLQNASAIESILKNLLPCLPLATAAPTRHPIHIKDGDWNEFRRKLTFYLKTLENAQAQQTTLSLAIF
modifications: biotinylated (sites not given)
notes: Bought reagent; also called biotinylated IL-3
Turning to B1, the binding result is reported as “binds”.
